# Measured values reported in patent US12698483B2 (priority 2019, dated 2026).
# Entries after “also recorded” stand apart in the source; their conditions may differ.
# B1: TrGST-C12 (protein, listed as Triticum aestivum)
# chain: MAGGDDLKLLGAWASPFVARVKLALSFKGLSFEDVEEDLSNKSELLLSSNPVHKKVPVLVHNGKPICESMIIVQYIDEAFLVGPSLLPSDPYKRAIARFWAAYIDDKLVTPWVQSLRAKTEEEKSEGVKQTFAAVETLEGALRECSKGEGYFGGETVGLVDISLGSLLSWLIATEVMSGTKIFDPVKTPLLAAWMGRFSELDAAKAALPEVDRVVEFAKKRQAQADAAAAASETK
# B2: TrGST-C02 (protein, listed as Triticum aestivum)
# chain: MAGGDDLKLLGAWASPFVTRVKLALNFKGLSFEDVEEDLSNKSELLLSSNPVHKKVPVLVHNGKPICESVIIVQYIDEAFAGIGPALLPSDPYERAIARFWAAYVDDKLVAPWVQSLRAKTEEEKSEGLKQTFAAVETLEGALRECSKGEGYFGGETVGLVDISLGSLLSWLNATEVMSGTKIFDPVKTPLLAAWMERFSKLDAAKAALPEVDRVVEFAKKRQAQAAAAAAASETK
# Key:
# Assay type in all cases: biochemical
# [1] = Enzyme dependent formation of the GSH adduct with roridin A; conditions: FIG. 17; pCA02 empty vector and no protein as controls
# [2] = Enzyme dependent formation of the GSH adduct with T-2 toxin; conditions: FIG. 11; pCA02 empty vector and no protein as controls
# [3] = Enzymatic DON-GSH conjugation assay (LC-HRMS, Orbitrap); conditions: 100 ppm DON, 5 mM GSH, pH6, within 24 hours; for formation of the Michael adduct of DON (MH1): against nonenzymatic background; for formation of the epoxide adduct of DON (MH2, DON-13-GSH): result in words
# [4] = Enzyme dependent formation of the GSH adduct with trichodermin; conditions: FIG. 14; pCA02 empty vector and no protein as controls
Molecule,formation of the GSH adduct with roridin A (Roridin-GSH_MH) [1],formation of the GSH adduct with T-2 toxin (T-2-GSH_MH) [2],formation of the Michael adduct of DON (MH1) [3],"formation of the epoxide adduct of DON (MH2, DON-13-GSH) [3]",formation of the GSH adduct with trichodermin (Trichodermin-GSH_MH) [4]
B1,Enzyme dependent formation of the GSH adduct,Enzyme dependent formation of the GSH adduct,clearly enhance Michael adduct formation; also recorded: clearly catalyze,clearly catalyze the formation of the epoxide-adduct; also recorded: catalyzed,Enzyme dependent formation of the GSH adduct
B2,Enzyme dependent formation of the GSH adduct,Enzyme dependent formation of the GSH adduct,clearly enhance Michael adduct formation; also recorded: clearly catalyze,clearly catalyze the formation of the epoxide-adduct; also recorded: catalyzed,Enzyme dependent formation of the GSH adduct
